This is an account of results in patent US20210054097A1.

Experiment [1] deals with human plasma-derived Factor X zymogen (human) (UniProt P00742). In words: cell-based or functional assay.
Experiment [2] concerns the target human activated Factor X (human) (UniProt P00742). In words: cell-based or functional assay.
The target of experiment [3] is human plasma-derived Factor X zymogen (human) (UniProt P00742). In words: apparent KD fitted from FXa generation assay.

Chain of human plasma-derived Factor X zymogen (human) (P00742 41-179, chain 1 of 2): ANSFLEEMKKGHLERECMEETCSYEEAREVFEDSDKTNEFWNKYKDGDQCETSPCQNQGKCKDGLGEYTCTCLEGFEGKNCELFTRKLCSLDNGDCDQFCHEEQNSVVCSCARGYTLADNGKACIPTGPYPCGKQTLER
Chain of human plasma-derived Factor X zymogen (human) (P00742 183-488, chain 2 of 2): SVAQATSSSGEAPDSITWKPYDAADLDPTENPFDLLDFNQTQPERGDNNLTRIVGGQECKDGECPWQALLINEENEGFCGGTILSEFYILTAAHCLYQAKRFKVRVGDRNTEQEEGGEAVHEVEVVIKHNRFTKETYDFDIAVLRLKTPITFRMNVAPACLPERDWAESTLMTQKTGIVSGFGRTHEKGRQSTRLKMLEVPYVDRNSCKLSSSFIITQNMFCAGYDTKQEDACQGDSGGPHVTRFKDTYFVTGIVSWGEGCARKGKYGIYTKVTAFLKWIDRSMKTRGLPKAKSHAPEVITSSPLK
Chain of human activated Factor X (human) (P00742 41-179, chain 1 of 2): as the sequence (P00742 41-179, chain 1 of 2) above
Chain of human activated Factor X (human) (P00742 235-488, chain 2 of 2): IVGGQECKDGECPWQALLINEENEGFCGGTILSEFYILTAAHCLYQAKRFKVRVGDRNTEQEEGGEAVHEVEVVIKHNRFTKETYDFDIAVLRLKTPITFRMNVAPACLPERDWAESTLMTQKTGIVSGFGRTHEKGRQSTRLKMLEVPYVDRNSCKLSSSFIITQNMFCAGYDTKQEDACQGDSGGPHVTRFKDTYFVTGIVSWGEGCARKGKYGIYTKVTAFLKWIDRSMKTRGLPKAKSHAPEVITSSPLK

As for Fab ACE910 anti-FX (J327/L404-k), the Increase in FX activation (fold) in experiment [1] was below 0.6 fold. In experiment [2], this substance came in with an FXa amidolytic activity (relative to free FXa, fold) of 1.02 fold. In experiment [3], the Kd turned out to be 3.9 µM.
